These are literature values, as cited in US20080181869A1, “THERAPEUTICS TO FACILITATE CELL TRANSPLANTATION FOR LIVER DISEASE” (priority 2006, published 2008).

The test system of one data set is lung fibroblasts. Conditions: in vitro.
The test system of the next data set is gene for TGF-β1. Conditions: bleomycin-induced model of lung fibrosis, exogenous interferon-γ.
In data set [1] the test system is hepatic stellate cells (HSCs). The settings on record: rat CCl4 model of liver damage.
In data set [2] the test system is rat model of hypertension.
The conditions of data set [3]: in vivo.
The next data set has as its system liver. Conditions: after hepatic resection.
Another data set deals with tumor cell. The settings on record: in vitro or in vivo studies.

In the case of “interferon-γ: interferon that inhibits proliferation of lung fibroblasts”, in the data set with lung fibroblasts, the “proliferation of lung fibroblasts” value is listed as “inhibits the proliferation of lung fibroblasts in a dose-dependent manner” and the “synthesis of protein in fibroblasts” value is recorded as “reduces the synthesis of protein in fibroblasts”. In the data set with gene for TGF-β1, the “transcription of the gene for TGF-β1” value was “down-regulated”.

As for relaxin, the “collagen deposition by hepatic stellate cells” value in data set [1] is “inhibit collagen deposition”. Also, the “cardiac and renal fibrosis” value in data set [2] was “reversing cardiac and renal fibrosis”. Also, the adverse events entry in data set [3] is on record as “few adverse events”.

B1: follistatin: peptide inhibitor of Activin A, a member of the transforming growth factor-beta superfamily (protein, UniProt P19883 30-344, looked up)
Follistatin: GNCWLRQAKNGRCQVLYKTELSKEECCSTGRLSTSWTEEDVNDNTLFKWMIFNGGAPNCIPCKETCENVDCGPGKKCRMNKKNKPRCVCAPDCSNITWKGPVCGLDGKTYRNECALLKARCKEQPELEVQYQGRCKKTCRDVFCPGSSTCVVDQTNNAYCVTCNRICPEPASSEQYLCGNDGVTYSSACHLRKATCLLGRSIGLAYEGKCIKAKSCEDIQCTGGKKCLWDFKVGRGRCSLCDELCPDSKSDEPVCASDNATYASECAMKEAACSSGVLLEVKHSGSCNSISEDTEEEEEDEDQDYSFPISSILEW
As to B1, the reduction in fibrosis in the data set with CCl4-exposed rats (CCl4-exposed rats treated with the peptide) was 32%. The “decrease in hepatocyte apoptosis” value in the data set with CCl4-exposed rats (CCl4-exposed rats, during treatment) is given as 87%. Further, in the data set with CCl4-exposed rats (week of follistatin treatment), the “time of maximal effect on hepatocyte apoptosis” value is given as 4 week. Besides, the “TGF-β-induced secretion of collagen from HSC” value in the data set with HSC was “inhibit TGF-β-induced secretion of collagen”. Moreover, the liver weight entry in the data set on liver was “significantly increases liver weight”. The tumor cell growth result in the data set on tumor cell is “did not accelerate tumor cell growth”.
